Test results: US7122382 (RIKEN, dated 2006)
Read-outs that look alike come from different tables or passages of the source.

T1: Bpx protein (nucleosome assembly protein homologue) (2-1H) (mouse, UniProt P51860 1-460, limits assumed, 35S-methionine label or biotinylated lysine, by its role in the assay)
T1 construct: also called NAP 1-like protein L2
T1 sequence (looked up): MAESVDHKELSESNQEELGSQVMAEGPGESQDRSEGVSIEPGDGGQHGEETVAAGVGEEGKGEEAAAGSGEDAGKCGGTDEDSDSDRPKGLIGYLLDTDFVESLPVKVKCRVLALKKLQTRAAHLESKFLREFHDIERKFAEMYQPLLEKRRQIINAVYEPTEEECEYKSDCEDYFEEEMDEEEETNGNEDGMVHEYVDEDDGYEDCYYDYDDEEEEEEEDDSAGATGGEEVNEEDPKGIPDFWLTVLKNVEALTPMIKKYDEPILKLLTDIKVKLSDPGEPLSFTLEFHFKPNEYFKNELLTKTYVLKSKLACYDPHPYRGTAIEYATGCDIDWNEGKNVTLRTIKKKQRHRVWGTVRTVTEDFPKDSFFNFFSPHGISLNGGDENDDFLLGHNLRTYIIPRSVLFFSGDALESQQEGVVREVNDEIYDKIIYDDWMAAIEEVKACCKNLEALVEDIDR

B1: Caspase 6 (1-9E) (enzyme, mouse, UniProt O08738 1-276, looked up)
chain: MTETDGFYKSREVFDPAEQYKMDHKRRGVALIFNHERFFWHLTLPERRGTNADRDNLTRRFSDLGFEVKCFNDLRAEELLLKIHEVSTSSHIDADCFICVFLSHGEGNHVYAYDAKIEIQTLTGLFKGDKCQSLVGKPKIFIIQACRGSQHDVPVVPLDMVDHQTDKLDNVTQVDAASVYTLPAGADFLMCYSVAEGYYSHRETVNGSWYIQDLCEMLARYGSSLEFTELLTLVNRKVSQRRVDFCKDPDAIGKKQVPCFASMLTKKLHFCPKPSK
modifications: 35S-methionine label or biotinylated lysine, by its role in the assay
B2: MB20 protein (function unknown, 2-10F) (other, mouse, UniProt Q794H2 1-544, looked up)
chain: MAEADPKMVTEPGAHGVAEEAMASTACDSGDESDSNSSSSTNSCSSSGSSSSGSSSSSSSSSSSSSSSSSSSSGSSGSSSNGSHLNRKKRVPEPSRRAQRRPSGKLFLDKLPQAVRNRVQALRNIQNECDKVDTLFLRAIHDLERKYAELNKPLYDKRFQIINAEYEPTEEECEWNSEEEFSGDEEMQDDTPNEMPPLEGEEEEESCNEKAEVKEEGTHVPEEVPEAKVEEEEAPKETPEVKTEEKDIPKEGAEEKAEEQESSKEIPEVKGEEKADSTDCIDIAPEEKEDVKEVTQANTENKDQPTEEFTPRAPAREAQKRVPETRPEEGVNIKRARKGKPKKEDPKGIPDYWLTVLKNVDKLGPMIQKCDEPILKFLSDVSLKFSNPGQPIGYTFEFHFLPNPYFRNELLMKTYIIRSKPDHYDPFFAWGWEIEECKGCKIDWRRGKDVTVTTTRSRPGITGEIEVQPRVVPNASFFNFFSPPEIPLIGKLEPREDAILDEDFEIGQILHDNVILKSIYYFTGEINDPYYHDFRDYGNRKYYK
modifications: 35S-methionine label or biotinylated lysine, by its role in the assay
notes: also called NAP1-like protein L3
B3: Fos (other, UniProt P01101 1-380, looked up)
chain: MMFSGFNADYEASSSRCSSASPAGDSLSYYHSPADSFSSMGSPVNTQDFCADLSVSSANFIPTVTAISTSPDLQWLVQPTLVSSVAPSQTRAPHPYGLPTQSAGAYARAGMVKTVSGGRAQSIGRRGKVEQLSPEEEEKRRIRRERNKMAAAKCRNRRRELTDTLQAETDQLEDEKSALQTEIANLLKEKEKLEFILAAHRPACKIPDDLGFPEEMSVASLDLTGGLPEASTPESEEAFTLPLLNDPEPKPSLEPVKSISNVELKAEPFDDFLFPASSRPSGSETSRSVPDVDLSGSFYAADWEPLHSNSLGMGPMVTELEPLCTPVVTCTPGCTTYTSSFVFTYPEADSFPSCAAAHRKGSSSNEPSSDSLSSPTLLAL
modifications: 35S-methionine label or biotinylated lysine, by its role in the assay
notes: Crude translation mix, not purified
B4: Jun (other, UniProt P05627 1-334, looked up)
chain: MTAKMETTFYDDALNASFLQSESGAYGYSNPKILKQSMTLNLADPVGSLKPHLRAKNSDLLTSPDVGLLKLASPELERLIIQSSNGHITTTPTPTQFLCPKNVTDEQEGFAEGFVRALAELHSQNTLPSVTSAAQPVSGAGMVAPAVASVAGAGGGGGYSASLHSEPPVYANLSNFNPGALSSGGGAPSYGAAGLAFPSQPQQQQQPPQPPHHLPQQIPVQHPRLQALKEEPQTVPEMPGETPPLSPIDMESQERIKAERKRMRNRIAASKCRKRKLERIARLEEKVKTLKAQNSELASTANMLREQVAQLKQKVMNHVNSGCQLMLTQQLQTF
modifications: 35S-methionine label or biotinylated lysine, by its role in the assay
B5: p53 (other, UniProt P02340 1-390, looked up)
chain: MTAMEESQSDISLELPLSQETFSGLWKLLPPEDILPSPHCMDDLLLPQDVEEFFEGPSEALRVSGAPAAQDPVTETPGPVAPAPATPWPLSSFVPSQKTYQGNYGFHLGFLQSGTAKSVMCTYSPPLNKLFCQLAKTCPVQLWVSATPPAGSRVRAMAIYKKSQHMTEVVRRCPHHERCSDGDGLAPPQHLIRVEGNLYPEYLEDRQTFRHSVVVPYEPPEAGSEYTTIHYKYMCNSSCMGGMNRRPILTIITLEDSSGNLLGRDSFEVRVCACPGRDRRTEEENFRKKEVLCPELPPGSAKRALPTCTSASPPQKKKPLDGEYFTLKIRGRKRFEMFRELNEALELKDAHATEESGDSRAHSSYLKTKKGQSTSRHKKTMVKKVGPDSD
modifications: 35S-methionine label or biotinylated lysine, by its role in the assay

Key:
1-9F = 1-9F (mouse); assay: single proteins, rows taken as 35S-labelled and columns as biotinylated, streptavidin beads
1-9G = 1-9G (mouse); assay: as above
1-9H = 1-9H (mouse); assay: as above
[1] = target: the molecule itself; assay: as above
2-1E = 2-1E (mouse); assay: as above
2-1F = 2-1F (mouse); assay: as above
2-1G = 2-1G (mouse); assay: as above
[2] = target: T1, Bpx protein (nucleosome assembly …); assay: as above
2-10G = 2-10G (mouse); assay: as above
2-10H = 2-10H (mouse); assay: as above
[3] = target: DnaJ-like protein (Hsj2) (2-10E) (mouse, UniProt P63037 1-397, 35S-methionine label or biotinylated lysine, by its role in the assay); assay: as above
[4] = target: the molecule itself; assay: as above; remark: listed apart in the source
Jun = target: B4; assay: biotinylated row protein on streptavidin beads, 35S column protein counted
Protocol: (§1) That is, 2.5 μL of each reaction solution was mixed and placed on ice for 60 min. A 15 μL quantity of streptoavidin (Dynabeads) diluted with TBST-1 percent skim milk was added, and the mixture was stirred for 30 min at 4° C. Magnetic force was employed to recover the beads, thorough washing was conducted with TBST, and then the RI of the beads was measured.

luciferase = luciferase (UniProt P08659 1-550 = luciferase, 35S-methionine label or biotinylated lysine, by its role in the assay); assay: as above
luciferase, sequence (P08659 whole entry): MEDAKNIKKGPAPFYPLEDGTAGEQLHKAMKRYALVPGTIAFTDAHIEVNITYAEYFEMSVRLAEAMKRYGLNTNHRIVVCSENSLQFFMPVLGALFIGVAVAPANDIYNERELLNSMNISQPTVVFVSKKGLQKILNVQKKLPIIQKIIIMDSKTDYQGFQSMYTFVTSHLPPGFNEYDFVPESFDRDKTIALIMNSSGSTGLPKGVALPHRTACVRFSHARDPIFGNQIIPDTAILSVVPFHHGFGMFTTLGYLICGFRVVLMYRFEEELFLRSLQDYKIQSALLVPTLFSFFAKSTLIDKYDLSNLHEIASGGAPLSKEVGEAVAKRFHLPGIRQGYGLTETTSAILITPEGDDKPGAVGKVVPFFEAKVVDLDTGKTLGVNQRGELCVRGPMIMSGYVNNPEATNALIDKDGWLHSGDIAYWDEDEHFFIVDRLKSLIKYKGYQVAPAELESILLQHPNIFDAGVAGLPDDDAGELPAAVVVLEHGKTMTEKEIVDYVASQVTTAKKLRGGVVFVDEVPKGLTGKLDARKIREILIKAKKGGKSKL
Protocol: as §1

SV40 large T = SV40 large T (SV40, UniProt P03070 1-708); assay: as above
Protocol: as §1

p53 = target: B5; assay: as above
Protocol: as §1

[5] = target: the molecule itself; assay: as above
Protocol: as §1

Fos = target: B3; assay: as above
Protocol: as §1

**Q.** Which results are given for B1?
**A.** RI (cpm) (1-9F): 32 cpm; RI (cpm) (1-9G): 36 cpm; RI (cpm) (1-9H): 37 cpm; RI (cpm) [1]: 225 cpm

**Q.** With B2 as the binder, how does the “RI (cpm)” value (2-1E) read?
**A.** 60 cpm

**Q.** And the “RI (cpm)” value (2-1F)?
**A.** 60 cpm

**Q.** And the “RI (cpm)” value (2-1G)?
**A.** 72 cpm

**Q.** And the “RI (cpm)” value [2]?
**A.** 736 cpm

**Q.** What about the “RI (cpm)” value (2-10G) of the same binder?
**A.** 67 cpm

**Q.** What about the “RI (cpm)” value (2-10H) of the same binder?
**A.** 98 cpm

**Q.** And the “RI (cpm)” value [3]?
**A.** 87 cpm

**Q.** And the “RI (cpm)” value [4]?
**A.** 168 cpm

**Q.** For B3, which “RI (c.p.m.)” value (Jun) is on record?
**A.** 675 c.p.m.

**Q.** And the “RI (c.p.m.)” value (luciferase)?
**A.** 172 c.p.m.

**Q.** And the “RI (c.p.m.)” value (SV40 large T)?
**A.** 156 c.p.m.

**Q.** And the “RI (c.p.m.)” value (p53)?
**A.** 169 c.p.m.

**Q.** And the “RI (c.p.m.)” value [5]?
**A.** 177 c.p.m.

**Q.** With B4 as the binder, how does the “RI (c.p.m.)” value (Fos) read?
**A.** 707 c.p.m.

**Q.** And the “RI (c.p.m.)” value (luciferase)?
**A.** 131 c.p.m.

**Q.** What about the “RI (c.p.m.)” value (SV40 large T) of the same binder?
**A.** 176 c.p.m.

**Q.** And the “RI (c.p.m.)” value (p53)?
**A.** 187 c.p.m.

**Q.** And the “RI (c.p.m.)” value [5]?
**A.** 204 c.p.m.

**Q.** For B5, which “RI (c.p.m.)” value (Fos) is on record?
**A.** 232 c.p.m.

**Q.** What about the “RI (c.p.m.)” value (Jun) of the same binder?
**A.** 206 c.p.m.

**Q.** What about the “RI (c.p.m.)” value (luciferase) of the same binder?
**A.** 154 c.p.m.
